Measured values: patent publication US20240262901A1 (published 2024)

Assays:
[1] = target: Rat RGMa (rat, UniProt D4A188 170-424); assay: BIAcore; Ab captured via anti-hIgG Fc, antigen injected
Method: (§1) The potency data correlates with the affinity data (see Table 5). The affinity of h5F9.23 affinity matured Abs towards human RGMa, rat RGMa, and human RGMc were determined by BIAcore analysis (Table 5). Testing Abs were captured to the surface of a CM5 chip via anti-hIgG Fc Ab, and serially diluted antigens were injected. Association and dissociation rates were monitored for 5 and 10 min respectively. Sensorgrams were fitted by global analysis using the BIAevaluation 4.0.1 software for a 1:1 Langmuir binding model. The equilibrium dissociation constants (KD) were calculated from kinetic rate constants (off rate kd and on rate ka): KD=kd/ka.

[2] = target: T1, human RGMa (human, UniProt Q96B86 48-422, limits assumed, biotinylated in the indirect ELISA); assay: as above
T1 construct: also called hRGMa; biotin hRGMa
T1 sequence: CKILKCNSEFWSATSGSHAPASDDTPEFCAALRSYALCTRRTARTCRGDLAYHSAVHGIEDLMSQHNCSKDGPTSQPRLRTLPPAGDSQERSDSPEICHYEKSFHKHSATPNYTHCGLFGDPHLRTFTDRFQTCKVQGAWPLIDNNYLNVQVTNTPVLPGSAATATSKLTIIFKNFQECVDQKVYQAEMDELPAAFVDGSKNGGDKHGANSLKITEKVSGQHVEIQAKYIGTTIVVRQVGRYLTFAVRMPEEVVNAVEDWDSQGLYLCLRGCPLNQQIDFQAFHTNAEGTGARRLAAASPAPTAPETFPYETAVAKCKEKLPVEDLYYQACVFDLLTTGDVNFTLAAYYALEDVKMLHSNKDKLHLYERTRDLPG
Method: as §1

Rat RGMa, sequence (D4A188 entry or part of it): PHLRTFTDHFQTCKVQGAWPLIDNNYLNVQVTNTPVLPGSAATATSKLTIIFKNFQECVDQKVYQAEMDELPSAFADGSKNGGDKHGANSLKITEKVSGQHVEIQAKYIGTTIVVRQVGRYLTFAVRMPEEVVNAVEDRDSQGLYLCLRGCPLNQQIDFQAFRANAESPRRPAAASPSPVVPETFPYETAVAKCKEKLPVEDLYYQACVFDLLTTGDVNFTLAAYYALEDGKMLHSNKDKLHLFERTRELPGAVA

Kd [1]: 2.1 nM
koff [1]: 0.0017 s⁻¹
kon [1]: 830000 M⁻¹ s⁻¹
kon [2]: 6e+06 M⁻¹ s⁻¹
B1: humanized antibody 5F9.23 (antibody, V domains shown)
VH: EVQLVESGGGLVQPGGSLRLSCAASGFTFSNYGMNWIRQAPGKGLEWIGMIYYDSSEKHYADSVKGRFTISRDNSKNTLYLQMNSLRAEDTAVYYCAKGTTPDYWGQGTMVTVSS
VL: DVVLTQSPLSLPVTLGQPASISCRSSQSLEYSDGYTFLEWFQQRPGQSPRLLIYEVSNRFSGVPDRFSGSGSGTDFTLKISRVEAEDVGVYYCFQATHDPLTFGQGTKLEIKR
notes: also called h5F9.23; H5F9.23
